Experiment [1] has as its target steroid receptor coactivator 3 (SRC3), full-length, Strep II tagged (human) (UniProt Q9Y6Q9). Briefly: SEC-MALS; R5020-bound PR-A, SRC3 and p300 mixed with PRE DNA; Superose 6 Increase; 20 mM Hepes, 50 mM NaCl, 5% glycerol, 1 mM TCEP, with or without 1 M urea, pH 7.5. (Size exclusion chromatography separates by hydrodynamic size, large species first.)
The target in experiment [2] is progesterone receptor isoform A (PR-A), full-length, Strep II tagged (human) (UniProt P06401). Described as above.
progesterone receptor isoform A (PR-A), full-length, Strep II tagged (human), sequence (P06401 165-933): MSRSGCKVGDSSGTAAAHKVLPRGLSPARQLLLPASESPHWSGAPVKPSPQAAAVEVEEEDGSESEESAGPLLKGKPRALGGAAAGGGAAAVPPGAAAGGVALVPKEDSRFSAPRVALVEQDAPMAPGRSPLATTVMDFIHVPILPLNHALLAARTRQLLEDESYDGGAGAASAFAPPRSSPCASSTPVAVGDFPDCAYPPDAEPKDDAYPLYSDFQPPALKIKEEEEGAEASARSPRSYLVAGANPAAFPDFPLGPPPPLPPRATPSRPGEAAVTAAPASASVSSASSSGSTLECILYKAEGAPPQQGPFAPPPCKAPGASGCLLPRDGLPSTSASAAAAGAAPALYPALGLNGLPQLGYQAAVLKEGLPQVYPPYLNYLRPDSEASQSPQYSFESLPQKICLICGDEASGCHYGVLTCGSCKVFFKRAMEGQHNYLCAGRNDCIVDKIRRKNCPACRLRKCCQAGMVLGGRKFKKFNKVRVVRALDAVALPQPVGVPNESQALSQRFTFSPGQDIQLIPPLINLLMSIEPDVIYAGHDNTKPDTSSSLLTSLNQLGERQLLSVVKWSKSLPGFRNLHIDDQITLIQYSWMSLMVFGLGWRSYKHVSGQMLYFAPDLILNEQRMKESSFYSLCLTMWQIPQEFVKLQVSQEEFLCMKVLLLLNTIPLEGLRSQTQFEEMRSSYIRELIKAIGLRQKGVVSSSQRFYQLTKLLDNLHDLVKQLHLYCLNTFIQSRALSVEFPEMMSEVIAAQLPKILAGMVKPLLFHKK

steroid receptor coactivator 3 (SRC3), full-length, Strep II tagged (human), sequence (Q9Y6Q9 whole entry, canonical isoform): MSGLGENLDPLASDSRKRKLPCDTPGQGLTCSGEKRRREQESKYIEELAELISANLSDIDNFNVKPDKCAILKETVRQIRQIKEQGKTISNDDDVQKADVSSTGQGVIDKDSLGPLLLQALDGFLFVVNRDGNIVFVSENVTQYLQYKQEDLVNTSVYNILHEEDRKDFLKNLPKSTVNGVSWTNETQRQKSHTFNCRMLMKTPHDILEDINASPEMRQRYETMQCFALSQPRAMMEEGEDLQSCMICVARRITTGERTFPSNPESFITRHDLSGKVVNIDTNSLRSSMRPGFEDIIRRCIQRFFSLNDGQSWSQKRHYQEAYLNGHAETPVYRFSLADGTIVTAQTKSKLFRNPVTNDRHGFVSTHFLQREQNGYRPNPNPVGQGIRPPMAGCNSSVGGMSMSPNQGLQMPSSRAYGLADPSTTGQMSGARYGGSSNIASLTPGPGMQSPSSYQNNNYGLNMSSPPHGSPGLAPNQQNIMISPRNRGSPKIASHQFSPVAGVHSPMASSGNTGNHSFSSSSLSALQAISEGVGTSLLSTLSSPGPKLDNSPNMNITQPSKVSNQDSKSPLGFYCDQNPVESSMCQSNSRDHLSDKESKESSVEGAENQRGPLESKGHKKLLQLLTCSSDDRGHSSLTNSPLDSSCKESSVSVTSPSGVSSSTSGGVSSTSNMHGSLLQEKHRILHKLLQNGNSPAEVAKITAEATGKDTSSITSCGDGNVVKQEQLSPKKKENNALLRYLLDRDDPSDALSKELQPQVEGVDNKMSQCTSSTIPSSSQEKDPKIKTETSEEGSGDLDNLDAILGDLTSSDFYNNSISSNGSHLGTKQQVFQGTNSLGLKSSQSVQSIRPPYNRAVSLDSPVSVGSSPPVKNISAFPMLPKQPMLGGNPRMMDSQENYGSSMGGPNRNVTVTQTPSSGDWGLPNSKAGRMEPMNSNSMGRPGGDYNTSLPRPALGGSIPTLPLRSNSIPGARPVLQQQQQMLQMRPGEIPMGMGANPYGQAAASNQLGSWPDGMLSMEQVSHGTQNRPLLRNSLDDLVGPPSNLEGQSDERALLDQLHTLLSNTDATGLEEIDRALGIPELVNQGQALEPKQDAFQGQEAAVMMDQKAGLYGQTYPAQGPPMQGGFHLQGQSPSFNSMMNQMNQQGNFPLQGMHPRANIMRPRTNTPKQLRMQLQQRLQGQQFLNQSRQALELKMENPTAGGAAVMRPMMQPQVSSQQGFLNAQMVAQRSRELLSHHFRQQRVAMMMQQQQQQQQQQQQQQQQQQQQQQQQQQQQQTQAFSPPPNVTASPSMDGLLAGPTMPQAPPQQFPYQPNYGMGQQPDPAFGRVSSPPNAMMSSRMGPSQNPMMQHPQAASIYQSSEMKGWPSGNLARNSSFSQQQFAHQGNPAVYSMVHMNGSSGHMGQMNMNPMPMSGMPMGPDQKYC

As a reminder, the stoichiometry N is the number of molecules, sites or subunits per partner or assembly. As for “histone acetyltransferase p300, full-length, Strep II tagged, Q09472 1-2414”, the stoichiometry N in experiment [1] amounted to 1; in experiment [2], 0.5.
